# Source: patent publication US6919309B2, “Methods and compositions for inhibiting angiogenesis” (Northwestern University, priority 1997, dated 2005)
# B1: PEDF: full length pigment epithelium derived growth factor, SEQ ID NO:1; purified from WERI-Rb-27R medium or recombinant histidine-tagged (protein, listed as Homo Sapiens)
# chain: MQALVLLLCIGALLGHSSCQNPASPPEEGSPDPDSTGALVEEEDPFFKVPVNKLAAAVSNFGYDLYRVRSSMSPTTNVLLSPLSVATALSALSLGADERTESIIHRALYYDLISSPDIHGTYKELLDTVTAPQKNLKSASRIVFEKKLRIKSSFVAPLEKSYGTRPRVLTGNPRLDLQEINNWVQAQMKGKLARSTKEIPDEISILLLGVAHFKGQWVTKFDSRKTSLEDFYLDEERTVRVPMMSDPKAVLRYGLDSDLSCKIAQLPLTGSMSIIFFLPLKVTQNLTLIEESLTSEFIHDIDRELKTVQAVLTVPKLKLSYEGEVTKSLQEMKLQSLFDSPDFSKITGKPIKLTQVEHRAGFEWNEDGAGTTPSPGLQPAHLTFPLDYHLNQPFIFVLRDTDTGALLFIGKILDPRGP
# Key:
# [1] = system: skin of athymic (nude/nude) mice; assay: Hair follicle density in skin of athymic nude mice after PEDF injection; type: in vivo, mouse; details: 2 μg purified PEDF daily for four days into tumors; FIG. 8
# Experimental: FIG. 8, comprising FIGS. 8A, 8B and 8C, is a series of images of photomicrographs of sections of skin obtained from animals treated with PEDF, wherein hair follicles are depicted. Human neuroblastoma tumors growing subcutaneously in nude mice were injected at 2-3 sites/tumor for four consecutive days with 2 μg of purified PEDF. On the fifth day, hair was noticed growing over the treated tumors. […] Similar increases in hair follicle density have been seen in the absence of tumors following injection of purified PEDF.
# The treatment consisted of injecting a total of 2 μg of purified histidine-tagged PEDF in a volume of 100 μl of phosphate buffered saline into 2-3 sites/tumor each day for 4 consecutive days. On the fifth day, a small area of increased hair growth was noticed over the injection sites. The mice were euthanized using an overdose of metaphane, and the tumors were surgically removed. Tumor tissue was sliced and placed in buffered formalin for at least 24 hours. Tissue was embedded in paraffin and prepared for histologic examination. The skin overlying neuroblastoma tumors treated with PEDF had increased hair follicle density when compared with the skin overlying tumors injected with saline vehicle (FIG. 8). Similar increases in hair follicle density have been seen in the absence of tumors following injection of purified PEDF.
# [2] = system: capillary endothelial cells; assay: bFGF-induced proliferation of capillary endothelial cells; type: cell-based; details: PEDF doses of 1.0 nM or greater
# Excerpt: Human PEDF cDNA was engineered by polymerase chain reaction to encode a COOH-terminal hexahistidine tag, cloned into pCEP4 (Invitrogen, Carlsbad, Calif.), and transfected into human embryonic kidney cells. Recombinant PEDF was purified from the conditioned media with the Xpress Protein Purification System (Invitrogen, Carlsbad, Calif.).
# [3] = system: human dermal microvascular endothelial cells; assay: Endothelial cell migration assay (modified Boyden chamber), human dermal microvascular endothelial cells; type: cell-based; details: 10 ng/ml bFGF plus PEDF; FIG. 1
# Experimental: (§1) The cells were plated on gelatinized Nucleopore membranes (5 μm pores for bovine capillary cells and 8 μm pores for other cells) in an inverted modified Boyden chamber. After two hours, the chamber was reinverted and test substances added to the top wells of each. Specifically, populations were exposed to either culture medium alone (control), 10 ng/ml bFGF, 2 nM PEDF (full length PEDF), or both 10 ng/ml bFGF (basic fibroblast growth factor) and 10 nM PEDF. The cells were then permitted to migrate for 3-4 hours. Following this, the membranes were fixed and stained, and the number of cells that had migrated were counted.
# Additional truncated peptides derived from PEDF were tested for efficacy in the endothelial cell migration assay using human dermal microvascular endothelial cells (Clonetics, Cell Systems) at passage 9 in a modified Boyden Chamber, as described above, and the results are shown in FIG. 7. In FIG. 7A, the cells were exposed to the gradient of VEGF in the presence of purified recombinant PEDF (rPEDF), bacterially produced PEDF (BH) or PEDF peptides containing only amino acid residues 78-121 (44-mer) and 44-77 (34-mer) referring to SEQ ID NO:1. Neutralizing antibodies were added where shown to verify if the anti-angiogenic effect is specific to PEDF peptides and not due to contamination. Both full length PEDF preparations were used at 25 nM, neutralizing polyclonal antiserum against PEDF was used at 1:200 dilution, recombinant human VEGF (R&D Systems) at 200 pg/ml. In FIG. 7B, the cells were exposed to the gradient of VEGF in the presence of increasing concentrations of 34-mer and 44-mer peptides. The antiserum used in this experiment was not affinity purified, whereas the antiserum used in all other experiments presented herein was affinity purified.
# [4] = system: endothelial cells isolated from human umbilical chords; assay: Endothelial cell migration assay, endothelial cells from human umbilical chords; type: cell-based; details: 10 ng/ml bFGF plus PEDF; FIG. 1
# Experimental: The migration of different vascular endothelial cell types was determined by adding PEDF to cultured endothelial cells, specifically, endothelial cells isolated from bovine adrenal capillaries, human umbilical chords, and human dermal microvascular tissue.
# as §1
# SK-N-BE(2) tumors = assay: Differentiation of human neuroblastoma tumors in athymic mice (neurofilament staining); type: in vivo, mouse; details: 2 μg PEDF per day intratumoral, 4 days
# Experimental: In vivo experiments were conducted to determine the effect of PEDF on neuroblastoma tumors. […] When the tumors grew to a palpable size (approximately 8 mm in diameter) PEDF treatment was started. A total of 2 μg of purified histidine-tagged PEDF in a volume of 100 μl of phosphate buffered saline was injected into 2-3 sites/tumor each day for 4 consecutive days. On the fifth day, the mice were euthanized by an overdose of metaphane, and the tumors were surgically removed. Tumor tissue was sliced and placed in buffered formalin for at least 24 hours. Tissue was embedded in paraffin and prepared for histologic examination. Sections were stained with an antibody that recognized neurofilament protein (Dako, Carpinteria, Calif.). […] A total of six SK-N-BE(2) tumors were treated with PEDF and 6/6 were moderately to strongly positive for neurofilament staining.
molecule,measurement,setting,value
B1,density of hair follicles compared with vehicle-treated skin,[1],three-fold increased density of hair follicles
same,inhibition of bFGF-induced proliferation,[2],40%
same,"migration, percentage of maximal migration",[3],considerably less migration was observed
same,"migration, percentage of maximal migration",[4],considerably less migration was observed
same,tumors moderately to strongly positive for neurofilament staining / tumors treated,SK-N-BE(2) tumors,6/6
